From paper PMC11076500, “Impact of distinct FG nucleoporin repeats on Nup98 self-association” (Nature Communications, 2024) come the findings set out here.

B1: Nup98^FG(298-327) peptide (peptide, UniProt P52948 298-327, looked up)
peptide: TGFSFGNTSTIGQPSTNTMGLFGVTQASQP
notes: Forms amyloid fibrils; each fibril layer holds five peptides (four parallel, one antiparallel); source: synthetic peptide (solid-phase synthesis, Genscript)
B2: FG-repeat domain of human Nup98 (Nup98^FG; residues 1-384), wild type (protein)
chain: MFNKSFGTPFGGGTGGFGTTSTFGQNTGFGTTSGGAFGTSAFGSSNNTGGLFGNSQTKPGGLFGTSSFSQPATSTSTGFGFGTSTGTANTLFGTASTGTSLFSSQNNAFAQNKPTGFGNFGTSTSSGGLFGTTNTTSNPFGSTSGSLFGPSSFTAAPTGTTIKFNPPTGTDTMVKAGVSTNISTKHQCITAMKEYESKSLEELRLEDYQANRKGPQNQVGAGTTTGLFGSSPATSSATGLFSSSTTNSGFAYGQNKTAFGTSTTGFGTNPGGLFGQQNQQTTSLFSKPFGQATTTQNTGFSFGNTSTIGQPSTNTMGLFGVTQASQPGGLFGTATNTSTGTAFGTGTGLFGQTNTGFGAVGSTLFGNNKLTTFGSSTTSAPSFG
B3: Nup98^FG F102S mutant (protein)
chain: MFNKSFGTPFGGGTGGFGTTSTFGQNTGFGTTSGGAFGTSAFGSSNNTGGLFGNSQTKPGGLFGTSSFSQPATSTSTGFGFGTSTGTANTLFGTASTGTSLSSSQNNAFAQNKPTGFGNFGTSTSSGGLFGTTNTTSNPFGSTSGSLFGPSSFTAAPTGTTIKFNPPTGTDTMVKAGVSTNISTKHQCITAMKEYESKSLEELRLEDYQANRKGPQNQVGAGTTTGLFGSSPATSSATGLFSSSTTNSGFAYGQNKTAFGTSTTGFGTNPGGLFGQQNQQTTSLFSKPFGQATTTQNTGFSFGNTSTIGQPSTNTMGLFGVTQASQPGGLFGTATNTSTGTAFGTGTGLFGQTNTGFGAVGSTLFGNNKLTTFGSSTTSAPSFG
B4: Nup98^FG F102S/F319S double mutant (protein)
chain: MFNKSFGTPFGGGTGGFGTTSTFGQNTGFGTTSGGAFGTSAFGSSNNTGGLFGNSQTKPGGLFGTSSFSQPATSTSTGFGFGTSTGTANTLFGTASTGTSLSSSQNNAFAQNKPTGFGNFGTSTSSGGLFGTTNTTSNPFGSTSGSLFGPSSFTAAPTGTTIKFNPPTGTDTMVKAGVSTNISTKHQCITAMKEYESKSLEELRLEDYQANRKGPQNQVGAGTTTGLFGSSPATSSATGLFSSSTTNSGFAYGQNKTAFGTSTTGFGTNPGGLFGQQNQQTTSLFSKPFGQATTTQNTGFSFGNTSTIGQPSTNTMGLSGVTQASQPGGLFGTATNTSTGTAFGTGTGLFGQTNTGFGAVGSTLFGNNKLTTFGSSTTSAPSFG
B5: Nup98^FG F319S mutant (protein)
chain: MFNKSFGTPFGGGTGGFGTTSTFGQNTGFGTTSGGAFGTSAFGSSNNTGGLFGNSQTKPGGLFGTSSFSQPATSTSTGFGFGTSTGTANTLFGTASTGTSLFSSQNNAFAQNKPTGFGNFGTSTSSGGLFGTTNTTSNPFGSTSGSLFGPSSFTAAPTGTTIKFNPPTGTDTMVKAGVSTNISTKHQCITAMKEYESKSLEELRLEDYQANRKGPQNQVGAGTTTGLFGSSPATSSATGLFSSSTTNSGFAYGQNKTAFGTSTTGFGTNPGGLFGQQNQQTTSLFSKPFGQATTTQNTGFSFGNTSTIGQPSTNTMGLSGVTQASQPGGLFGTATNTSTGTAFGTGTGLFGQTNTGFGAVGSTLFGNNKLTTFGSSTTSAPSFG
B6: Nup98^FG F228S mutant (protein)
chain: MFNKSFGTPFGGGTGGFGTTSTFGQNTGFGTTSGGAFGTSAFGSSNNTGGLFGNSQTKPGGLFGTSSFSQPATSTSTGFGFGTSTGTANTLFGTASTGTSLFSSQNNAFAQNKPTGFGNFGTSTSSGGLFGTTNTTSNPFGSTSGSLFGPSSFTAAPTGTTIKFNPPTGTDTMVKAGVSTNISTKHQCITAMKEYESKSLEELRLEDYQANRKGPQNQVGAGTTTGLSGSSPATSSATGLFSSSTTNSGFAYGQNKTAFGTSTTGFGTNPGGLFGQQNQQTTSLFSKPFGQATTTQNTGFSFGNTSTIGQPSTNTMGLFGVTQASQPGGLFGTATNTSTGTAFGTGTGLFGQTNTGFGAVGSTLFGNNKLTTFGSSTTSAPSFG

One data set deals with the molecule itself. Briefly: cryo-EM structure; amyloid fibrils from 2 mM peptide in water, 25 °C for one day; helical reconstruction, 2.67 Å; five peptides in each layer.
Conditions: not given
In the case of B1, the binding result was “binds”.

The next data set concerns the target P52948. Put plainly: 1D 1H NMR (loss of the signal of soluble protein); 100 μM protein in 50 mM sodium phosphate, 1 mM TCEP; pH raised from 3 to 7 with NaOH, measured immediately (deadtime ~5 min); 5 °C; amide region integrated; self-association into particles not detectable by NMR. As to conditions: other: 1D 1H NMR (loss of the signal of soluble protein).
B2: the “percent of the protein aggregated just after changing the pH to 7” value (from here on “percent of the protein aggregated just”) was 67 % of the wild-type protein forms aggregates.

Turning to B3, the “percent of the protein aggregated just” value was “only 28 and 23 % of the protein aggregated, respectively”.

Consider B4, for which the “percent of the protein aggregated just” value is “only 28 and 23 % of the protein aggregated, respectively”.

On to B5, for which the “percent of the protein aggregated just” value was “only 28 and 23 % of the protein aggregated, respectively”.

Turning to B6, the “percent of the protein aggregated just” value is recorded as “in the F228S mutant 46% of the protein aggregates”.
